The values that follow come from patent US20250115676A1.

In experiment [1] the target is shADAM9-His (His-tagged soluble human ADAM9) (human) (UniProt Q13443). Put plainly: BIACORE SPR; antibody captured on Fab2 goat anti-human Fc surface, shADAM9-His 6.25-100 nM as analyte; 1:1 Langmuir. On the technique in general: Surface plasmon resonance follows binding to a sensor surface in real time, without labels.
Experiment [2] shares this target. Description: binding affinity study (BIACORE, Table 7); reference not named.
Experiment [3] shares this target. Description: BIACORE SPR; antibody captured, huADAM9-His as analyte.

B1: chMAB-A (antibody, V domains shown)
VH: QVQLQQPGAELVKPGASVKLSCKASGYTFTSYWMHWVKQRPGQGLEWIGEIIPINGHTNYNEKFKSKATLTLDKSSSTAYMQLSSLASEDSAVYYCARGGYYYYGSRDYFDYWGQGTTLTVSS
VL: DIVLTQSPASLAVSLGQRATISCKASQSVDYDGDSYMNWYQQIPGQPPKLLIYAASDLESGIPARFSGSGSGTDFTLNIHPVEEEDAATYYCQQSHEDPFTFGGGTKLEIK
In general, Kd refers to the equilibrium constant for the complex coming apart. A low value points to tighter binding. In turn, B1 returned a Kd in experiment [1] of 3.6 nM.

B2: hMAB-A (2.3) (antibody, V domains shown)
VH: EVQLVESGGGLVKPGGSLRLSCAASGFTFSSYWMHWVRQAPGKGLEWVGEIIPIFGHTNYNEKFKSRFTISLDNSKNTLYLQMGSLRAEDTAVYYCARGGYYYYGSRDYFDYWGQGTTVTVSS
VL: DIVMTQSPDSLAVSLGERATISCRASQSVDYSGDSYMNWYQQKPGQPPKLLIYAASDLESGIPARFSGSGSGTDFTLTISSLEPEDFATYYCQQSHEDPFTFGQGTKLEIK
Molecule B2 showed a fold increase in affinity in experiment [2] of 2 fold. In experiment [1], this molecule yielded a Kd of 1.3 nM.

B3: hMAB-A (2D.2) (antibody, V domains shown)
VH: EVQLVESGGGLVKPGGSLRLSCAASGFTFSSYWMHWVRQAPGKGLEWVGEIIPIFGHTNYNEKFKSRFTISLDNSKNTLYLQMGSLRAEDTAVYYCARGGYYYYTGKGVLDYWGQGTTVTVSS
VL: DIVMTQSPDSLAVSLGERATISCKASQSVDYSGDSYMNWYQQKPGQPPKLLIYAASDLESGIPARFSGSGSGTDFTLTISSLEPEDFATYYCQQSHEDPFTFGQGTKLEIK
As a reminder, the koff is a measure of how fast the partners let go of each other. The low end stands for slow dissociation, the high end for fast dissociation. In general, kon refers to a measure of how fast the partners come together. In experiment [3], B3 had a Kd of 0.8 nM, a koff of 0.00058 s⁻¹ and an association rate constant (kon) of 690000 M⁻¹ s⁻¹.

B4: hMAB-A (2B.2) (antibody, V domains shown)
VH: EVQLVESGGGLVKPGGSLRLSCAASGFTFSSYWMHWVRQAPGKGLEWVGEIIPIFGHTNYNEKFKSRFTISLDNSKNTLYLQMGSLRAEDTAVYYCARGGYYYYIGKGVLDYWGQGTTVTVSS
VL: DIVMTQSPDSLAVSLGERATISCKASQSVDYSGDSYMNWYQQKPGQPPKLLIYAASDLESGIPARFSGSGSGTDFTLTISSLEPEDFATYYCQQSHEDPFTFGQGTKLEIK
Turning to B4, in experiment [3], the Kd turned out to be 0.6 nM, the koff amounted to 0.00039 s⁻¹ and the kon was found to be 610000 M⁻¹ s⁻¹.

B5: hMAB-A (2I.2) (antibody, V domains shown)
VH: EVQLVESGGGLVKPGGSLRLSCAASGFTFSSYWMHWVRQAPGKGLEWVGEIIPIFGHTNYNEKFKSRFTISLDNSKNTLYLQMGSLRAEDTAVYYCARGGYYYYPRQGFLDYWGQGTTVTVSS
VL: DIVMTQSPDSLAVSLGERATISCKASQSVDYSGDSYMNWYQQKPGQPPKLLIYAASDLESGIPARFSGSGSGTDFTLTISSLEPEDFATYYCQQSHEDPFTFGQGTKLEIK
As for B5, in experiment [3], the Kd worked out at 0.4 nM, the koff was found to be 0.00023 s⁻¹ and the kon worked out at 660000 M⁻¹ s⁻¹.

B6: hMAB-A (2C.2) (antibody, V domains shown)
VH: EVQLVESGGGLVKPGGSLRLSCAASGFTFSSYWMHWVRQAPGKGLEWVGEIIPIFGHTNYNEKFKSRFTISLDNSKNTLYLQMGSLRAEDTAVYYCARGGYYYYPRFGWLDYWGQGTTVTVSS
VL: DIVMTQSPDSLAVSLGERATISCKASQSVDYSGDSYMNWYQQKPGQPPKLLIYAASDLESGIPARFSGSGSGTDFTLTISSLEPEDFATYYCQQSHEDPFTFGQGTKLEIK
For B6, in experiment [3], the Kd was 1.4 nM, the koff stood at 0.00081 s⁻¹ and the kon turned out to be 590000 M⁻¹ s⁻¹.

B7: hMAB-A (2.2) (antibody, V domains shown)
VH: EVQLVESGGGLVKPGGSLRLSCAASGFTFSSYWMHWVRQAPGKGLEWVGEIIPIFGHTNYNEKFKSRFTISLDNSKNTLYLQMGSLRAEDTAVYYCARGGYYYYGSRDYFDYWGQGTTVTVSS
VL: DIVMTQSPDSLAVSLGERATISCKASQSVDYSGDSYMNWYQQKPGQPPKLLIYAASDLESGIPARFSGSGSGTDFTLTISSLEPEDFATYYCQQSHEDPFTFGQGTKLEIK
In experiment [2], B7 had a fold increase in affinity of 2 fold. In experiment [1], this molecule gave a Kd of 1.4 nM. For the same molecule, in experiment [3], the Kd is 0.6 nM, the koff was determined as 0.00055 s⁻¹ and the kon was 900000 M⁻¹ s⁻¹.

B8: hMAB-A (3.3) (antibody, V domains shown)
VH: EVQLVESGGGLVKPGGSLRLSCAASGFTFSSYWMHWVRQAPGKGLEWVGEIIPIFGHTNYNERFQGRFTISLDNSKNTLYLQMGSLRAEDTAVYYCARGGYYYYGSRDYFDYWGQGTTVTVSS
VL: DIVMTQSPDSLAVSLGERATISCRASQSVDYSGDSYMNWYQQKPGQPPKLLIYAASDLESGIPARFSGSGSGTDFTLTISSLEPEDFATYYCQQSHEDPFTFGQGTKLEIK
Take B8: in experiment [2], the fold increase in affinity was 2 fold. This molecule showed a Kd in experiment [1] of 1.4 nM.

B9: hMAB-A (4.4) (antibody, V domains shown)
VH: EVQLVESGGGLVKPGGSLRLSCAASGFTFSSYWIHWVRQAPGKGLEWVGEIIPIFGHTNYNERFQGRFTISLDNSKNTLYLQMGSLRAEDTAVYYCARGGYYYYGSRDYFDYWGQGTTVTVSS
VL: DIVMTQSPDSLAVSLGERATISCRASQSVDYSGDSYLNWYQQKPGQPPKLLIYAASDLESGIPARFSGSGSGTDFTLTISSLEPEDFATYYCQQSYSTPFTFGQGTKLEIK
B9: the Kd in experiment [1] was determined as 2 nM.

B10: hMAB-A (1.1) (antibody, V domains shown)
VH: EVQLVESGGGLVKPGGSLRLSCAASGFTFSSYWMHWVRQAPGKGLEWVGEIIPINGHTNYNEKFKSRFTISLDNSKNTLYLQMGSLRAEDTAVYYCARGGYYYYGSRDYFDYWGQGTTVTVSS
VL: DIVMTQSPDSLAVSLGERATISCKASQSVDYDGDSYMNWYQQKPGQPPKLLIYAASDLESGIPARFSGSGSGTDFTLTISSLEPEDFATYYCQQSHEDPFTFGQGTKLEIK
With B10, the dissociation constant Kd in experiment [1] was found to be 3.5 nM. This Kd lies about 1.8-fold higher than the previous one.
